Results reported in paper PMC8352909.

How the values were obtained:
[1] = molecular target: Fc-tagged human IL-2 receptor subunit alpha, extracellular domain (hIL-2 Ra-Fc) (human) (UniProt P01589)
[2] = molecular target: Fc-tagged human IL-2 receptor beta subunit extracellular domain (hIL-2 Rb-Fc) (human) (UniProt P14784)
[3] = molecular target: Fc-tagged human IL-2 receptor alpha subunit extracellular domain (hIL-2 Ra-Fc) (human) (UniProt P01589)

Sequence of UniProt P14784 (P14784 27-240): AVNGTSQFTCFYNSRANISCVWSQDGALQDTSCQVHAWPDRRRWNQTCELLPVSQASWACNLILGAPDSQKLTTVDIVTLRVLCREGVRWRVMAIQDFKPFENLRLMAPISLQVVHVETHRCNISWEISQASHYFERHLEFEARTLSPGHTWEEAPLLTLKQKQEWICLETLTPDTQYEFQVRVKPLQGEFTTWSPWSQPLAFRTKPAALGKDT

IL-2 P65 AzK (replacement of proline 65 with AzK, without PEG attachment) (from UniProt P60568 21-153) (ligand)
potency (EC50) of pSTAT5 induction in Treg cells of human PBMC, PEG size study [1]: 5450 pg/mL

IL-2 with E62 replaced with AzK, pegylated with 10 kDa mPEG (from UniProt P60568 21-153) (ligand)
Supplementary Table 1: βγ EC50 (nM), DiscoverX PathHunter IL-2 receptor βγ assay; row E62 [2]: 3 nM

IL-2 with E62 replaced with AzK, pegylated with 30 kDa mPEG (from UniProt P60568 21-153) (ligand)
Supplementary Table 1: βγ EC50 (nM), DiscoverX PathHunter IL-2 receptor βγ assay; row E62* [2]: 7.46 nM
Supplementary Table 1: αβγ EC50 (nM), DiscoverX PathHunter IL-2 receptor αβγ assay; row E62* [3]: 2.84 nM

IL-2 with E68 replaced with AzK, pegylated with 30 kDa mPEG (from UniProt P60568 21-153) (ligand)
Supplementary Table 1: βγ EC50 (nM), DiscoverX PathHunter IL-2 receptor βγ assay; row E68* [2]: 7.7 nM
Supplementary Table 1: αβγ EC50 (nM), DiscoverX PathHunter IL-2 receptor αβγ assay; row E68* [3]: 0.09 nM

IL-2 with F42 replaced with AzK, pegylated with 10 kDa mPEG (from UniProt P60568 21-153) (ligand)
Supplementary Table 1: βγ EC50 (nM), DiscoverX PathHunter IL-2 receptor βγ assay; row F42 [2]: 6.09 nM
Supplementary Table 1: αβγ EC50 (nM), DiscoverX PathHunter IL-2 receptor αβγ assay; row F42 [3]: 0.52 nM

IL-2 with K35 replaced with AzK, pegylated with 10 kDa mPEG (from UniProt P60568 21-153) (ligand)
Supplementary Table 1: βγ EC50 (nM), DiscoverX PathHunter IL-2 receptor βγ assay; row K35 [2]: 6.75 nM

IL-2 with K43 replaced with AzK, pegylated with 10 kDa mPEG (from UniProt P60568 21-153) (ligand)
Supplementary Table 1: βγ EC50 (nM), DiscoverX PathHunter IL-2 receptor βγ assay; row K43 [2]: 9.84 nM
Supplementary Table 1: αβγ EC50 (nM), DiscoverX PathHunter IL-2 receptor αβγ assay; row K43 [3]: 0.13 nM

IL-2 with R38 replaced with AzK, pegylated with 10 kDa mPEG (from UniProt P60568 21-153) (ligand)
Supplementary Table 1: βγ EC50 (nM), DiscoverX PathHunter IL-2 receptor βγ assay; row R38 [2]: 4.16 nM
Supplementary Table 1: αβγ EC50 (nM), DiscoverX PathHunter IL-2 receptor αβγ assay; row R38 [3]: 0.17 nM

IL-2 with T41 replaced with AzK, pegylated with 10 kDa mPEG (from UniProt P60568 21-153) (ligand)
Supplementary Table 1: βγ EC50 (nM), DiscoverX PathHunter IL-2 receptor βγ assay; row T41 [2]: 6.37 nM
Supplementary Table 1: αβγ EC50 (nM), DiscoverX PathHunter IL-2 receptor αβγ assay; row T41 [3]: 0.05 nM

IL-2 with V69 replaced with AzK, pegylated with 30 kDa mPEG (from UniProt P60568 21-153) (ligand)
Supplementary Table 1: βγ EC50 (nM), DiscoverX PathHunter IL-2 receptor βγ assay; row V69* [2]: 9.99 nM
Supplementary Table 1: αβγ EC50 (nM), DiscoverX PathHunter IL-2 receptor αβγ assay; row V69* [3]: 0.08 nM

IL-2 with Y45 replaced with AzK, pegylated with 10 kDa mPEG (from UniProt P60568 21-153) (ligand)
Supplementary Table 1: βγ EC50 (nM), DiscoverX PathHunter IL-2 receptor βγ assay; row Y45 [2]: 9.06 nM
Supplementary Table 1: αβγ EC50 (nM), DiscoverX PathHunter IL-2 receptor αβγ assay; row Y45 [3]: 0.11 nM
